In US20170081400A1 (CEPHALON, published 2017):

T1: human TL1A extracellular domain with N-terminal HIS and FLAG tag (human, UniProt O95150 72-251)
T1 construct: the whole entry is named; also called TNFSF15
T1 sequence: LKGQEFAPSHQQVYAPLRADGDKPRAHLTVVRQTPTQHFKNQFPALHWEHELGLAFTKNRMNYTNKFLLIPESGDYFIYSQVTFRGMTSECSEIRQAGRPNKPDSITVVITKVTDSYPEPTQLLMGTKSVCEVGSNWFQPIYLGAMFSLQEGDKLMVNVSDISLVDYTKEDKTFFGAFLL


Tests used:
[1] = target: T1, human TL1A extracellular domain with …; assay: SPR Run 7, antibody on Protein A, TL1A 5 ug/mL, timepoint 220
From the text: (§1) 1.5. Antibody expression and antigen binding as determined by SPR. Using a CM5 sensor chip (GE Healthcare) Protein A (Pierce) was coupled to the chip surface using an amine coupling kit (GE Healthcare). Protein A was coupled on flow cell 1 and 2 (or alternatively 3 and 4) using a BIACORE® T200. […] The amount of supernatant or purified protein (as well as the concentration) injected during the capture stage varied between runs and is specified in the header of the Tables 3-11. At the end of injection of the supernatant or purified antibody the change in response units was measured. This value was reported as Capture Level in Tables 3-11. […] The response units were measured prior to the end of the dissociation phase. […] The sensorgrams were double referenced (flow cell 2 is subtracted from flow cell 1 and a buffer blank). As there were a large number of antibody variants to screen, these were screened across different runs (Tables 3-11). […] A summary of the conditions used in each run is below:
(§2) 2.1. […] In some experiment the antibodies were purified using Protein A chromatography (See 1.4) and purified antibodies were used in BIACORE® (GE Healthcare) experiments.

[2] = target: T1, human TL1A extracellular domain with …; assay: SPR Run 7, antibody on Protein A, TL1A 5 ug/mL, timepoint 44
From the text: as §1, §2

Binder	TL1A Binding Level (Late) [1] [RU]	TL1A Binding Level (Early) [2] [RU]
320-517 (antibody, human IgG1, name in Kabat numbering, V domains shown, full-length human IgG1, lambda) VH: QVQLVQSGAEVKKPGASVKVSCKASGYTFTSYDINWVRQAPGQGLEWMGWLNPDSGNTGYAQKFQGRVTMTADRSTSTAYMELSSLRSEDTAVYYCAREVPETAAFEYWGQGTLVTVSS VL: QSVLTQPPSVSGAPGQRVTISCTSSSSDIGAGLGVHWYQQLPGTAPKLLIEGYYNRPSGVPDRFSGSKSGTSASLTITGLLPEDEGDYYCQSYDGTLSALFGGGTKLTVLG	50	55
320-527 (antibody, human IgG1, name in Kabat numbering, V domains shown, full-length human IgG1, lambda) VH: QVQLVQSGAEVKKPGASVKVSCKASGYTFTSYDINWVRQAPGQGLEWMGWLNPNKGNTGYAQKFQGRVTMTADRSTSTAYMELSSLRSEDTAVYYCAREVPETAAFEYWGQGTLVTVSS VL: QSVLTQPPSVSGAPGQRVTISCTSSSSDIGAGLGVHWYQQLPGTAPKLLIEGYYNRPSGVPDRFSGSKSGTSASLTITGLLPEDEGDYYCQSYDGTLSALFGGGTKLTVLG	136	146
320-524 (antibody, human IgG1, name in Kabat numbering, V domains shown, full-length human IgG1, lambda) VH: QVQLVQSGAEVKKPGASVKVSCKASGYTFTSYDINWVRQAPGQGLEWMGWLNPNQGNTGYAQKFQGRVTMTADRSTSTAYMELSSLRSEDTAVYYCAREVPETAAFEYWGQGTLVTVSS VL: QSVLTQPPSVSGAPGQRVTISCTSSSSDIGAGLGVHWYQQLPGTAPKLLIEGYYNRPSGVPDRFSGSKSGTSASLTITGLLPEDEGDYYCQSYDGTLSALFGGGTKLTVLG	49	55
320-525 (antibody, human IgG1, name in Kabat numbering, V domains shown, full-length human IgG1, lambda) VH: QVQLVQSGAEVKKPGASVKVSCKASGYTFTSYDINWVRQAPGQGLEWMGWLNPNDGNTGYAQKFQGRVTMTADRSTSTAYMELSSLRSEDTAVYYCAREVPETAAFEYWGQGTLVTVSS VL: QSVLTQPPSVSGAPGQRVTISCTSSSSDIGAGLGVHWYQQLPGTAPKLLIEGYYNRPSGVPDRFSGSKSGTSASLTITGLLPEDEGDYYCQSYDGTLSALFGGGTKLTVLG	17	33
320-533 (antibody, human IgG1, name in Kabat numbering, V domains shown, full-length human IgG1, lambda) VH: QVQLVQSGAEVKKPGASVKVSCKASGYTFTSYDINWVRQAPGQGLEWMGWLNPNSQNTGYAQKFQGRVTMTADRSTSTAYMELSSLRSEDTAVYYCAREVPETAAFEYWGQGTLVTVSS VL: QSVLTQPPSVSGAPGQRVTISCTSSSSDIGAGLGVHWYQQLPGTAPKLLIEGYYNRPSGVPDRFSGSKSGTSASLTITGLLPEDEGDYYCQSYDGTLSALFGGGTKLTVLG	86	93
320-522 (antibody, human IgG1, name in Kabat numbering, V domains shown, full-length human IgG1, lambda) VH: QVQLVQSGAEVKKPGASVKVSCKASGYTFTSYDINWVRQAPGQGLEWMGWLNPYSGNTGYAQKFQGRVTMTADRSTSTAYMELSSLRSEDTAVYYCAREVPETAAFEYWGQGTLVTVSS VL: QSVLTQPPSVSGAPGQRVTISCTSSSSDIGAGLGVHWYQQLPGTAPKLLIEGYYNRPSGVPDRFSGSKSGTSASLTITGLLPEDEGDYYCQSYDGTLSALFGGGTKLTVLG	129	141
320-523 (antibody, human IgG1, name in Kabat numbering, V domains shown, full-length human IgG1, lambda) VH: QVQLVQSGAEVKKPGASVKVSCKASGYTFTSYDINWVRQAPGQGLEWMGWLNPNAGNTGYAQKFQGRVTMTADRSTSTAYMELSSLRSEDTAVYYCAREVPETAAFEYWGQGTLVTVSS VL: QSVLTQPPSVSGAPGQRVTISCTSSSSDIGAGLGVHWYQQLPGTAPKLLIEGYYNRPSGVPDRFSGSKSGTSASLTITGLLPEDEGDYYCQSYDGTLSALFGGGTKLTVLG	82	88
320-528 (antibody, human IgG1, name in Kabat numbering, V domains shown, full-length human IgG1, lambda) VH: QVQLVQSGAEVKKPGASVKVSCKASGYTFTSYDINWVRQAPGQGLEWMGWLNPNLGNTGYAQKFQGRVTMTADRSTSTAYMELSSLRSEDTAVYYCAREVPETAAFEYWGQGTLVTVSS VL: QSVLTQPPSVSGAPGQRVTISCTSSSSDIGAGLGVHWYQQLPGTAPKLLIEGYYNRPSGVPDRFSGSKSGTSASLTITGLLPEDEGDYYCQSYDGTLSALFGGGTKLTVLG	108	121
320-529 (antibody, human IgG1, name in Kabat numbering, V domains shown, full-length human IgG1, lambda) VH: QVQLVQSGAEVKKPGASVKVSCKASGYTFTSYDINWVRQAPGQGLEWMGWLNPNWGNTGYAQKFQGRVTMTADRSTSTAYMELSSLRSEDTAVYYCAREVPETAAFEYWGQGTLVTVSS VL: QSVLTQPPSVSGAPGQRVTISCTSSSSDIGAGLGVHWYQQLPGTAPKLLIEGYYNRPSGVPDRFSGSKSGTSASLTITGLLPEDEGDYYCQSYDGTLSALFGGGTKLTVLG	83	94
320-521 (antibody, human IgG1, name in Kabat numbering, V domains shown, full-length human IgG1, lambda) VH: QVQLVQSGAEVKKPGASVKVSCKASGYTFTSYDINWVRQAPGQGLEWMGWLNPWSGNTGYAQKFQGRVTMTADRSTSTAYMELSSLRSEDTAVYYCAREVPETAAFEYWGQGTLVTVSS VL: QSVLTQPPSVSGAPGQRVTISCTSSSSDIGAGLGVHWYQQLPGTAPKLLIEGYYNRPSGVPDRFSGSKSGTSASLTITGLLPEDEGDYYCQSYDGTLSALFGGGTKLTVLG	152	166
320-531 (antibody, human IgG1, name in Kabat numbering, V domains shown, full-length human IgG1, lambda) VH: QVQLVQSGAEVKKPGASVKVSCKASGYTFTSYDINWVRQAPGQGLEWMGWLNPNSANTGYAQKFQGRVTMTADRSTSTAYMELSSLRSEDTAVYYCAREVPETAAFEYWGQGTLVTVSS VL: QSVLTQPPSVSGAPGQRVTISCTSSSSDIGAGLGVHWYQQLPGTAPKLLIEGYYNRPSGVPDRFSGSKSGTSASLTITGLLPEDEGDYYCQSYDGTLSALFGGGTKLTVLG	61	66
320-526 (antibody, human IgG1, name in Kabat numbering, V domains shown, full-length human IgG1, lambda) VH: QVQLVQSGAEVKKPGASVKVSCKASGYTFTSYDINWVRQAPGQGLEWMGWLNPNHGNTGYAQKFQGRVTMTADRSTSTAYMELSSLRSEDTAVYYCAREVPETAAFEYWGQGTLVTVSS VL: QSVLTQPPSVSGAPGQRVTISCTSSSSDIGAGLGVHWYQQLPGTAPKLLIEGYYNRPSGVPDRFSGSKSGTSASLTITGLLPEDEGDYYCQSYDGTLSALFGGGTKLTVLG	124	134
320-532 (antibody, human IgG1, name in Kabat numbering, V domains shown, full-length human IgG1, lambda) VH: QVQLVQSGAEVKKPGASVKVSCKASGYTFTSYDINWVRQAPGQGLEWMGWLNPNSSNTGYAQKFQGRVTMTADRSTSTAYMELSSLRSEDTAVYYCAREVPETAAFEYWGQGTLVTVSS VL: QSVLTQPPSVSGAPGQRVTISCTSSSSDIGAGLGVHWYQQLPGTAPKLLIEGYYNRPSGVPDRFSGSKSGTSASLTITGLLPEDEGDYYCQSYDGTLSALFGGGTKLTVLG	7	10
320-518 (antibody, human IgG1, name in Kabat numbering, V domains shown, full-length human IgG1, lambda) VH: QVQLVQSGAEVKKPGASVKVSCKASGYTFTSYDINWVRQAPGQGLEWMGWLNPHSGNTGYAQKFQGRVTMTADRSTSTAYMELSSLRSEDTAVYYCAREVPETAAFEYWGQGTLVTVSS VL: QSVLTQPPSVSGAPGQRVTISCTSSSSDIGAGLGVHWYQQLPGTAPKLLIEGYYNRPSGVPDRFSGSKSGTSASLTITGLLPEDEGDYYCQSYDGTLSALFGGGTKLTVLG	153	169
320-520 (antibody, human IgG1, name in Kabat numbering, V domains shown, full-length human IgG1, lambda) VH: QVQLVQSGAEVKKPGASVKVSCKASGYTFTSYDINWVRQAPGQGLEWMGWLNPLSGNTGYAQKFQGRVTMTADRSTSTAYMELSSLRSEDTAVYYCAREVPETAAFEYWGQGTLVTVSS VL: QSVLTQPPSVSGAPGQRVTISCTSSSSDIGAGLGVHWYQQLPGTAPKLLIEGYYNRPSGVPDRFSGSKSGTSASLTITGLLPEDEGDYYCQSYDGTLSALFGGGTKLTVLG	162	174
320-530 (antibody, human IgG1, name in Kabat numbering, V domains shown, full-length human IgG1, lambda) VH: QVQLVQSGAEVKKPGASVKVSCKASGYTFTSYDINWVRQAPGQGLEWMGWLNPNYGNTGYAQKFQGRVTMTADRSTSTAYMELSSLRSEDTAVYYCAREVPETAAFEYWGQGTLVTVSS VL: QSVLTQPPSVSGAPGQRVTISCTSSSSDIGAGLGVHWYQQLPGTAPKLLIEGYYNRPSGVPDRFSGSKSGTSASLTITGLLPEDEGDYYCQSYDGTLSALFGGGTKLTVLG	67	77
320-519 (antibody, human IgG1, name in Kabat numbering, V domains shown, full-length human IgG1, lambda) VH: QVQLVQSGAEVKKPGASVKVSCKASGYTFTSYDINWVRQAPGQGLEWMGWLNPKSGNTGYAQKFQGRVTMTADRSTSTAYMELSSLRSEDTAVYYCAREVPETAAFEYWGQGTLVTVSS VL: QSVLTQPPSVSGAPGQRVTISCTSSSSDIGAGLGVHWYQQLPGTAPKLLIEGYYNRPSGVPDRFSGSKSGTSASLTITGLLPEDEGDYYCQSYDGTLSALFGGGTKLTVLG	196	217
